How the values were obtained:
mCherry-BNIP3 (WT) = experiment: immunoblot for dimers; immunoblot analysis of WT or OMP25C hybrids of BNIP3 and NIX expressed in B/N DKO cells
mCherry-NIX (WT) = mCherry-NIX (WT) (UniProt O60238); experiment: as above

Sequence of mCherry-BNIP3 (WT) (natural protein) (Q12983 whole entry): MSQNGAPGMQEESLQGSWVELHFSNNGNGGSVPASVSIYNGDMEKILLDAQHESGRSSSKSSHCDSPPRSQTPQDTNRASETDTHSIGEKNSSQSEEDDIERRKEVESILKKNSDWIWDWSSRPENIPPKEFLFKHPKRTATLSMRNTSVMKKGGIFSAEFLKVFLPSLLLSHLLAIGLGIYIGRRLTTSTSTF
Sequence of mCherry-NIX (WT), O60238 1-219 (natural protein; other documents disagree on this pair) (O60238 whole entry): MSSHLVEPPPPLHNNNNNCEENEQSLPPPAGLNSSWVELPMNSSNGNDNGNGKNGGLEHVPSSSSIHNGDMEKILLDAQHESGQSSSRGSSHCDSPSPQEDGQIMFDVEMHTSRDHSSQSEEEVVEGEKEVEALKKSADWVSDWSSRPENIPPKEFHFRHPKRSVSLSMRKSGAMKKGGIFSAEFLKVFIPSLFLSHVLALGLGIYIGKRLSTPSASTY

**Q.** With mCherry-BNIP3 (WT) (natural protein) as the substance, how does the stoichiometry N (mCherry-BNIP3 (WT)) read?
**A.** 2

**Q.** For “mCherry-NIX (WT), O60238 1-219 (natural protein; other documents disagree on this pair)”, which stoichiometry N (mCherry-NIX (WT)) is on record?
**A.** 2
